Measurements: the supplement of paper PMC10567573

B1: KLHL12 (parent)
chain: REESLPNLLQYVRMPLLTPRYITD
B2: TRIM55 (parent)
chain: FQMEKIEHGYENMNHFTVNLNREE

Variants of: B1
Assay: protein stability index of a GFP-peptide fusion (GPS, HEK-293T) (PSI 1-6); higher = more stable
Conditions: c terminus: a fixed tail appended
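Further: lentivirally expressed fusions sorted by FACS into six bins by GFP to DsRed ratio, PSI derived from sequencing read proportions per bin multiplied by bin number.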

Row | Variant | protein stability index
1 | RPESLPNLLQYVRMPLLTPRYITD [E2P] | 2.56
2 | RLESLPNLLQYVRMPLLTPRYITD [E2L] | 2.47
3 | RNESLPNLLQYVRMPLLTPRYITD [E2N] | 2.51
4 | RKESLPNLLQYVRMPLLTPRYITD [E2K] | 2.31
5 | RIESLPNLLQYVRMPLLTPRYITD [E2I] | 2.5
6 | RGESLPNLLQYVRMPLLTPRYITD [E2G] | 3.19
7 | RMESLPNLLQYVRMPLLTPRYITD [E2M] | 2.4
8 | RFESLPNLLQYVRMPLLTPRYITD [E2F] | 2.4
9 | RDESLPNLLQYVRMPLLTPRYITD [E2D] | 2.38
10 | RAESLPNLLQYVRMPLLTPRYITD [E2A] | 3.56
11 | RCESLPNLLQYVRMPLLTPRYITD [E2C] | 3.52
12 | RHESLPNLLQYVRMPLLTPRYITD [E2H] | 2.92
13 | RQESLPNLLQYVRMPLLTPRYITD [E2Q] | 2.53
14 | VEESLPNLLQYVRMPLLTPRYITD [R1V] | 2.35
15 | KEESLPNLLQYVRMPLLTPRYITD [R1K] | 2.52
16 | GEESLPNLLQYVRMPLLTPRYITD [R1G] | 2.23

Row | Variant | protein stability index
17 | NEESLPNLLQYVRMPLLTPRYITD [R1N] | 2.72
18 | QEESLPNLLQYVRMPLLTPRYITD [R1Q] | 2.31
19 | SEESLPNLLQYVRMPLLTPRYITD [R1S] | 2.7
20 | EEESLPNLLQYVRMPLLTPRYITD [R1E] | 2.8
21 | HEESLPNLLQYVRMPLLTPRYITD [R1H] | 2.18
22 | PEESLPNLLQYVRMPLLTPRYITD [R1P] | 2.16
23 | FEESLPNLLQYVRMPLLTPRYITD [R1F] | 2.43
24 | DEESLPNLLQYVRMPLLTPRYITD [R1D] | 2.63
25 | IEESLPNLLQYVRMPLLTPRYITD [R1I] | 1.83
26 | WEESLPNLLQYVRMPLLTPRYITD [R1W] | 1.61
27 | MEESLPNLLQYVRMPLLTPRYITD [R1M] | 2.25
28 | LEESLPNLLQYVRMPLLTPRYITD [R1L] | 2.83
29 | AEESLPNLLQYVRMPLLTPRYITD [R1A] | 2.23
30 | TEESLPNLLQYVRMPLLTPRYITD [R1T] | 2.19
31 | CEESLPNLLQYVRMPLLTPRYITD [R1C] | 1.96
32 | YEESLPNLLQYVRMPLLTPRYITD [R1Y] | 1.82

Variants of: B2
Assay: as above
Conditions: c terminus: a fixed tail appended

Row | Variant | protein stability index
33 | FQMEKIEHGYENMNHFTVNLSREE [N21S] | 3.08
34 | FQMEKIEHGYENMNHFTVNLKREE [N21K] | 2.87
35 | FQMEKIEHGYENMNHFTVNLFREE [N21F] | 2.07
36 | FQMEKIEHGYENMNHFTVNLWREE [N21W] | 1.13
37 | FQMEKIEHGYENMNHFTVNLMREE [N21M] | 2.1
38 | FQMEKIEHGYENMNHFTVNLHREE [N21H] | 2.15
39 | FQMEKIWHGYENMNHFTVNLNREE [E7W] | 2.65
40 | FQMEKIKHGYENMNHFTVNLNREE [E7K] | 2.05
41 | FQMEKIRHGYENMNHFTVNLNREE [E7R] | 2.05
42 | FQMEKILHGYENMNHFTVNLNREE [E7L] | 2.46
43 | FQMEKIMHGYENMNHFTVNLNREE [E7M] | 2.46
44 | FQMEKITHGYENMNHFTVNLNREE [E7T] | 2.27
45 | FQMEKINHGYENMNHFTVNLNREE [E7N] | 2.3
46 | FQMEKIDHGYENMNHFTVNLNREE [E7D] | 2.63
47 | FQMEKISHGYENMNHFTVNLNREE [E7S] | 2.34
48 | FQMEKIEHGYENCNHFTVNLNREE [M13C] | 2.93
49 | FQMEKIEHGYENWNHFTVNLNREE [M13W] | 2.12
50 | FQMEKIEHGYENVNHFTVNLNREE [M13V] | 2.46
51 | FQMEKIEHGYENKNHFTVNLNREE [M13K] | 2.87
52 | FQMEKIEHGYENANHFTVNLNREE [M13A] | 3.23
53 | FQVEKIEHGYENMNHFTVNLNREE [M3V] | 2.8

Row | Variant | protein stability index
54 | FQIEKIEHGYENMNHFTVNLNREE [M3I] | 2.82
55 | FQEEKIEHGYENMNHFTVNLNREE [M3E] | 5.07
56 | FQCEKIEHGYENMNHFTVNLNREE [M3C] | 2.83
57 | FQFEKIEHGYENMNHFTVNLNREE [M3F] | 2.86
58 | FQAEKIEHGYENMNHFTVNLNREE [M3A] | 2.57
59 | FQNEKIEHGYENMNHFTVNLNREE [M3N] | 3.36
60 | FQWEKIEHGYENMNHFTVNLNREE [M3W] | 2.11
61 | FQKEKIEHGYENMNHFTVNLNREE [M3K] | 2.68
62 | FQMEKIEHGYENMNHFTVNLNREP [E24P] | 2.37
63 | FQMEKIEHGYENMNHFTVNLNREQ [E24Q] | 3
64 | FQMEKIEHGYENMNHFTVNLNREY [E24Y] | 1.57
65 | FQMEKIEHGYENMNHFTLNLNREE [V18L] | 3.08
66 | FQMEKIEHGYENMNHFTYNLNREE [V18Y] | 2.39
67 | FQMEKIEHGYENMNHFTENLNREE [V18E] | 3.61
68 | FQMEKIEHGYENMNHFTKNLNREE [V18K] | 3.27
69 | FQMEKIEHGYENMNHFTCNLNREE [V18C] | 2.03
70 | FQMEKIEHGYENMNHFTVNVNREE [L20V] | 1.91
71 | FQMEKIEHGYENMNHFTVNANREE [L20A] | 3.2
72 | FQMEKIEHGYENMNHFTVNNNREE [L20N] | 3.5
73 | FQMEKIEHGYENMNHFTVNYNREE [L20Y] | 2.42
74 | FQMEKIEHGYENMNHFTVNMNREE [L20M] | 2.51

Row | Variant | protein stability index
75 | FQMEKIEHGYENMNHFTVNTNREE [L20T] | 2.7
76 | FQMEKIEHGYENMNHFTVNHNREE [L20H] | 3.23
77 | FQMEKIEHGYENMNHFTVNDNREE [L20D] | 3.47
78 | FQMEKIEHGYENMNHFTVNFNREE [L20F] | 2.71
79 | FQMEKIEHGYENMNHRTVNLNREE [F16R] | 4.25
80 | FQMEKIEHGYENMNHYTVNLNREE [F16Y] | 3.29
81 | FQMEKIEHGYENMNHNTVNLNREE [F16N] | 4.31
82 | FQMEKIEHGYENMNHCTVNLNREE [F16C] | 4.06
83 | FQMEKIEHGYENMNHHTVNLNREE [F16H] | 4.09
84 | FQMEKIEHGYENMNHVTVNLNREE [F16V] | 4.01
85 | FQMEKIEHGYCNMNHFTVNLNREE [E11C] | 1.56
86 | FQMEKIEHGYVNMNHFTVNLNREE [E11V] | 1.97
87 | FQMEKIEHGYWNMNHFTVNLNREE [E11W] | 2.35
88 | FQMEKIEHGYANMNHFTVNLNREE [E11A] | 1.82
89 | FQMEKIEHGYTNMNHFTVNLNREE [E11T] | 2.42
90 | FQMEKIEHGYPNMNHFTVNLNREE [E11P] | 2.07
91 | FQMEKIENGYENMNHFTVNLNREE [H8N] | 2.89
92 | FQMEKIEPGYENMNHFTVNLNREE [H8P] | 2.77
93 | FQMEKIEKGYENMNHFTVNLNREE [H8K] | 2.84
94 | FQMEKIERGYENMNHFTVNLNREE [H8R] | 2.74
